The values below come from US20260015399A1 (Boehringer Ingelheim, published 2026).

*1 amine or outer side, *2 acyl side, *3 side chain or, on linkers, in order; H or OH if unused. Side-chain parts run from the residue outwards. The star is where a group is joined. C18 diacid = O=C(O)CCCCCCCCCCCCCCCCC(=O)*; γGlu = O=C(O)[C@H](CCC(=O)[*:2])N[*:1]; Isovaleryl = CC(C)CC(=O)*; Ahx = NCCCCCC(=O)O

The experiment addresses T1, human NPY2 receptor (human, UniProt P49146 1-381).
T1 construct: whole, on cells; also called hNPY2-R; hNPY2R
T1 sequence (looked up): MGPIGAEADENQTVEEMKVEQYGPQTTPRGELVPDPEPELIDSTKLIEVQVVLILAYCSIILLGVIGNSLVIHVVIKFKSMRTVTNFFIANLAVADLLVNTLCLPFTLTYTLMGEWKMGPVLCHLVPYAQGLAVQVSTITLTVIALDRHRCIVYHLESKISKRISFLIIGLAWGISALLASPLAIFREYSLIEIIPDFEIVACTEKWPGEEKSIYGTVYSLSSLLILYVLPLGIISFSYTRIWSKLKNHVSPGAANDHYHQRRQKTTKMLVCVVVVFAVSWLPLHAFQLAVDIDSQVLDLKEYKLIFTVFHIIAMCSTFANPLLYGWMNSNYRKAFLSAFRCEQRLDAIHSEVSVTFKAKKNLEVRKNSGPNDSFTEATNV
The experiment is described as follows: RLB: displacement of 125I-PYY(1-36) from hNPY2R membranes. For orientation: In a radioligand displacement assay an active substance lowers the binding of a labelled ligand.

B1: Compound 36 (peptide)
peptide: Isovaleryl-APAK([Ahx-γGlu-C18 diacid])PEEAATPEEIQRYYVSLRHYYNWLTRQRY-NH2
SMILES: CC[C@H](C)[C@H](NC(=O)[C@H](CCC(=O)O)NC(=O)[C@H](CCC(=O)O)NC(=O)[C@@H]1CCCN1C(=O)[C@@H](NC(=O)[C@H](C)NC(=O)[C@H](C)NC(=O)[C@H](CCC(=O)O)NC(=O)[C@H](CCC(=O)O)NC(=O)[C@@H]1CCCN1C(=O)[C@H](CCCCNC(=O)CCCCCNC(=O)CC[C@H](NC(=O)CCCCCCCCCCCCCCCCC(=O)O)C(=O)O)NC(=O)[C@H](C)NC(=O)[C@@H]1CCCN1C(=O)[C@H](C)NC(=O)CC(C)C)[C@@H](C)O)C(=O)N[C@@H](CCC(N)=O)C(=O)N[C@@H](CCCNC(=N)N)C(=O)N[C@@H](Cc1ccc(O)cc1)C(=O)N[C@@H](Cc1ccc(O)cc1)C(=O)N[C@H](C(=O)N[C@@H](CO)C(=O)N[C@@H](CC(C)C)C(=O)N[C@@H](CCCNC(=N)N)C(=O)N[C@@H](Cc1c[nH]cn1)C(=O)N[C@@H](Cc1ccc(O)cc1)C(=O)N[C@@H](Cc1ccc(O)cc1)C(=O)N[C@@H](CC(N)=O)C(=O)N[C@@H](Cc1c[nH]c2ccccc12)C(=O)N[C@@H](CC(C)C)C(=O)N[C@H](C(=O)N[C@@H](CCCNC(=N)N)C(=O)N[C@@H](CCC(N)=O)C(=O)N[C@@H](CCCNC(=N)N)C(=O)N[C@@H](Cc1ccc(O)cc1)C(N)=O)[C@@H](C)O)C(C)C
For the molecule B1, the Ki (as a rule, the dissociation constant of the complex between target and ligand, obtained from inhibition or displacement) worked out at 1.25 nM.

B2: Compound 42 (peptide)
peptide: Isovaleryl-APEK([Ahx-γGlu-C18 diacid])PEEPATPEELQRYYVSLRHYYNWLTRQRY-NH2
SMILES: CC(C)CC(=O)N[C@@H](C)C(=O)N1CCC[C@H]1C(=O)N[C@@H](CCC(=O)O)C(=O)N[C@@H](CCCCNC(=O)CCCCCNC(=O)CC[C@H](NC(=O)CCCCCCCCCCCCCCCCC(=O)O)C(=O)O)C(=O)N1CCC[C@H]1C(=O)N[C@@H](CCC(=O)O)C(=O)N[C@@H](CCC(=O)O)C(=O)N1CCC[C@H]1C(=O)N[C@@H](C)C(=O)N[C@H](C(=O)N1CCC[C@H]1C(=O)N[C@@H](CCC(=O)O)C(=O)N[C@@H](CCC(=O)O)C(=O)N[C@@H](CC(C)C)C(=O)N[C@@H](CCC(N)=O)C(=O)N[C@@H](CCCNC(=N)N)C(=O)N[C@@H](Cc1ccc(O)cc1)C(=O)N[C@@H](Cc1ccc(O)cc1)C(=O)N[C@H](C(=O)N[C@@H](CO)C(=O)N[C@@H](CC(C)C)C(=O)N[C@@H](CCCNC(=N)N)C(=O)N[C@@H](Cc1c[nH]cn1)C(=O)N[C@@H](Cc1ccc(O)cc1)C(=O)N[C@@H](Cc1ccc(O)cc1)C(=O)N[C@@H](CC(N)=O)C(=O)N[C@@H](Cc1c[nH]c2ccccc12)C(=O)N[C@@H](CC(C)C)C(=O)N[C@H](C(=O)N[C@@H](CCCNC(=N)N)C(=O)N[C@@H](CCC(N)=O)C(=O)N[C@@H](CCCNC(=N)N)C(=O)N[C@@H](Cc1ccc(O)cc1)C(N)=O)[C@@H](C)O)C(C)C)[C@@H](C)O
For the molecule B2, affinity was put at a Ki of 1.98 nM.

B3: Compound 38 (peptide)
peptide: Isovaleryl-APEK([Ahx-γGlu-C18 diacid])PEEDATPEELQEYYVSLRHYYNWLTRQRY-NH2
SMILES: CC(C)CC(=O)N[C@@H](C)C(=O)N1CCC[C@H]1C(=O)N[C@@H](CCC(=O)O)C(=O)N[C@@H](CCCCNC(=O)CCCCCNC(=O)CC[C@H](NC(=O)CCCCCCCCCCCCCCCCC(=O)O)C(=O)O)C(=O)N1CCC[C@H]1C(=O)N[C@@H](CCC(=O)O)C(=O)N[C@@H](CCC(=O)O)C(=O)N[C@@H](CC(=O)O)C(=O)N[C@@H](C)C(=O)N[C@H](C(=O)N1CCC[C@H]1C(=O)N[C@@H](CCC(=O)O)C(=O)N[C@@H](CCC(=O)O)C(=O)N[C@@H](CC(C)C)C(=O)N[C@@H](CCC(N)=O)C(=O)N[C@@H](CCC(=O)O)C(=O)N[C@@H](Cc1ccc(O)cc1)C(=O)N[C@@H](Cc1ccc(O)cc1)C(=O)N[C@H](C(=O)N[C@@H](CO)C(=O)N[C@@H](CC(C)C)C(=O)N[C@@H](CCCNC(=N)N)C(=O)N[C@@H](Cc1c[nH]cn1)C(=O)N[C@@H](Cc1ccc(O)cc1)C(=O)N[C@@H](Cc1ccc(O)cc1)C(=O)N[C@@H](CC(N)=O)C(=O)N[C@@H](Cc1c[nH]c2ccccc12)C(=O)N[C@@H](CC(C)C)C(=O)N[C@H](C(=O)N[C@@H](CCCNC(=N)N)C(=O)N[C@@H](CCC(N)=O)C(=O)N[C@@H](CCCNC(=N)N)C(=O)N[C@@H](Cc1ccc(O)cc1)C(N)=O)[C@@H](C)O)C(C)C)[C@@H](C)O
With B3, the Ki was 12.4 nM.

B4: Compound 41 (peptide)
peptide: Isovaleryl-APEK([Ahx-γGlu-C18 diacid])PEEDAEPEELQRYYTSLRHYYQWLTRQRY-NH2
SMILES: CC(C)CC(=O)N[C@@H](C)C(=O)N1CCC[C@H]1C(=O)N[C@@H](CCC(=O)O)C(=O)N[C@@H](CCCCNC(=O)CCCCCNC(=O)CC[C@H](NC(=O)CCCCCCCCCCCCCCCCC(=O)O)C(=O)O)C(=O)N1CCC[C@H]1C(=O)N[C@@H](CCC(=O)O)C(=O)N[C@@H](CCC(=O)O)C(=O)N[C@@H](CC(=O)O)C(=O)N[C@@H](C)C(=O)N[C@@H](CCC(=O)O)C(=O)N1CCC[C@H]1C(=O)N[C@@H](CCC(=O)O)C(=O)N[C@@H](CCC(=O)O)C(=O)N[C@@H](CC(C)C)C(=O)N[C@@H](CCC(N)=O)C(=O)N[C@@H](CCCNC(=N)N)C(=O)N[C@@H](Cc1ccc(O)cc1)C(=O)N[C@@H](Cc1ccc(O)cc1)C(=O)N[C@H](C(=O)N[C@@H](CO)C(=O)N[C@@H](CC(C)C)C(=O)N[C@@H](CCCNC(=N)N)C(=O)N[C@@H](Cc1c[nH]cn1)C(=O)N[C@@H](Cc1ccc(O)cc1)C(=O)N[C@@H](Cc1ccc(O)cc1)C(=O)N[C@@H](CCC(N)=O)C(=O)N[C@@H](Cc1c[nH]c2ccccc12)C(=O)N[C@@H](CC(C)C)C(=O)N[C@H](C(=O)N[C@@H](CCCNC(=N)N)C(=O)N[C@@H](CCC(N)=O)C(=O)N[C@@H](CCCNC(=N)N)C(=O)N[C@@H](Cc1ccc(O)cc1)C(N)=O)[C@@H](C)O)[C@@H](C)O
For B4, the inhibitory constant (Ki) is 19.8 nM.

B5: Compound 39 (peptide)
peptide: Isovaleryl-APEK([Ahx-γGlu-C18 diacid])PEEDASPEALQEYYVSLRHYYNWLTRQRY-NH2
SMILES: CC(C)CC(=O)N[C@@H](C)C(=O)N1CCC[C@H]1C(=O)N[C@@H](CCC(=O)O)C(=O)N[C@@H](CCCCNC(=O)CCCCCNC(=O)CC[C@H](NC(=O)CCCCCCCCCCCCCCCCC(=O)O)C(=O)O)C(=O)N1CCC[C@H]1C(=O)N[C@@H](CCC(=O)O)C(=O)N[C@@H](CCC(=O)O)C(=O)N[C@@H](CC(=O)O)C(=O)N[C@@H](C)C(=O)N[C@@H](CO)C(=O)N1CCC[C@H]1C(=O)N[C@@H](CCC(=O)O)C(=O)N[C@@H](C)C(=O)N[C@@H](CC(C)C)C(=O)N[C@@H](CCC(N)=O)C(=O)N[C@@H](CCC(=O)O)C(=O)N[C@@H](Cc1ccc(O)cc1)C(=O)N[C@@H](Cc1ccc(O)cc1)C(=O)N[C@H](C(=O)N[C@@H](CO)C(=O)N[C@@H](CC(C)C)C(=O)N[C@@H](CCCNC(=N)N)C(=O)N[C@@H](Cc1c[nH]cn1)C(=O)N[C@@H](Cc1ccc(O)cc1)C(=O)N[C@@H](Cc1ccc(O)cc1)C(=O)N[C@@H](CC(N)=O)C(=O)N[C@@H](Cc1c[nH]c2ccccc12)C(=O)N[C@@H](CC(C)C)C(=O)N[C@H](C(=O)N[C@@H](CCCNC(=N)N)C(=O)N[C@@H](CCC(N)=O)C(=O)N[C@@H](CCCNC(=N)N)C(=O)N[C@@H](Cc1ccc(O)cc1)C(N)=O)[C@@H](C)O)C(C)C
B5 registered a Ki of 2.73 nM.

B6: Compound 43 (peptide)
peptide: Isovaleryl-APAK([Ahx-γGlu-C18 diacid])PEAAAEPEELQRYYVSLRHYYNWLTRQRY-NH2
SMILES: CC(C)CC(=O)N[C@@H](C)C(=O)N1CCC[C@H]1C(=O)N[C@@H](C)C(=O)N[C@@H](CCCCNC(=O)CCCCCNC(=O)CC[C@H](NC(=O)CCCCCCCCCCCCCCCCC(=O)O)C(=O)O)C(=O)N1CCC[C@H]1C(=O)N[C@@H](CCC(=O)O)C(=O)N[C@@H](C)C(=O)N[C@@H](C)C(=O)N[C@@H](C)C(=O)N[C@@H](CCC(=O)O)C(=O)N1CCC[C@H]1C(=O)N[C@@H](CCC(=O)O)C(=O)N[C@@H](CCC(=O)O)C(=O)N[C@@H](CC(C)C)C(=O)N[C@@H](CCC(N)=O)C(=O)N[C@@H](CCCNC(=N)N)C(=O)N[C@@H](Cc1ccc(O)cc1)C(=O)N[C@@H](Cc1ccc(O)cc1)C(=O)N[C@H](C(=O)N[C@@H](CO)C(=O)N[C@@H](CC(C)C)C(=O)N[C@@H](CCCNC(=N)N)C(=O)N[C@@H](Cc1c[nH]cn1)C(=O)N[C@@H](Cc1ccc(O)cc1)C(=O)N[C@@H](Cc1ccc(O)cc1)C(=O)N[C@@H](CC(N)=O)C(=O)N[C@@H](Cc1c[nH]c2ccccc12)C(=O)N[C@@H](CC(C)C)C(=O)N[C@H](C(=O)N[C@@H](CCCNC(=N)N)C(=O)N[C@@H](CCC(N)=O)C(=O)N[C@@H](CCCNC(=N)N)C(=O)N[C@@H](Cc1ccc(O)cc1)C(N)=O)[C@@H](C)O)C(C)C
For B6, the affinity corresponds to a Ki of 2.49 nM.
